# Numbering of substitutions follows the chain as printed. Like-named read-outs stand apart in the source and are kept apart here.
# T1: Recombinant human CD73 protein (human)
# T1 chain: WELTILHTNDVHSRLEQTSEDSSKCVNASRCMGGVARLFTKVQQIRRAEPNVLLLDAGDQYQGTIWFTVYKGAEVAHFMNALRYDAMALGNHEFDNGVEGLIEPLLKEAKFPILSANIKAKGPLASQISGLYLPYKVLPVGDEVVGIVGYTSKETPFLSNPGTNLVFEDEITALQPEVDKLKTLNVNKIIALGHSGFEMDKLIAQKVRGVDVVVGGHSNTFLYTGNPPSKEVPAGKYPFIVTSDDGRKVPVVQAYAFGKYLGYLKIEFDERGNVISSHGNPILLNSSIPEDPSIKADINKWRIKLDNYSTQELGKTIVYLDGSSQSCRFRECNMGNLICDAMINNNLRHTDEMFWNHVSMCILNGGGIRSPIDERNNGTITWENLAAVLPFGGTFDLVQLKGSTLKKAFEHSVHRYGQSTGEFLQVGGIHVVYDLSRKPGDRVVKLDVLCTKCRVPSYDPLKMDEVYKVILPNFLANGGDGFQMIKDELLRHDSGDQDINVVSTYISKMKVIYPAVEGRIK
# T2: Human CD73 on the cell surface (human)
# T2 chain: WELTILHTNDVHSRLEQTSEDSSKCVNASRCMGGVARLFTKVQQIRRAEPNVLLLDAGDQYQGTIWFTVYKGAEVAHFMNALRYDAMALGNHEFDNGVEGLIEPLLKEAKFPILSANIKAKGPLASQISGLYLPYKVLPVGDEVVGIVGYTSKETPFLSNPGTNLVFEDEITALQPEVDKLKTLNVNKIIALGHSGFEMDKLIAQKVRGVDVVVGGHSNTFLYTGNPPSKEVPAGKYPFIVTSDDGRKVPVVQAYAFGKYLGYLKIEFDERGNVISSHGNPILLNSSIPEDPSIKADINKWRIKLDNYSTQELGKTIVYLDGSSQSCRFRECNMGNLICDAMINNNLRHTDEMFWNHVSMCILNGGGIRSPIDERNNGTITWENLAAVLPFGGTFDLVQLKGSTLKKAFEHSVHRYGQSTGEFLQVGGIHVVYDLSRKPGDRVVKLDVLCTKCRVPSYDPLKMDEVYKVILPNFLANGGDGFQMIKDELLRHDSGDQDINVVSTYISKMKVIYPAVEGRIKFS
# B1: 101-Mu (antibody, V domains shown)
# VH: DVQLQESGPGLVKPSQSLSLTCSVTGYSITSGYYWNWIRQFPGNKLEWMGYINYGGSNGYNPSLKSRISITRDTSKNQFFLKLNSVTTEDTATYYCARDYDAYYEALDDWGQGTSVTVSS
# VL: QIVLSQSPAILSASPGEKVTMTCRASSRVNYMHWYQQKPGSSPKPWISATSNLASGVPARFSGSGSGTSYSLTISRVETEDAATYYCQQWSSNPPTFGGGTKLEIK
# B2: 101-Mu chimera (antibody, V domains shown)
# VH: B1 VH
# VL: B1 VL
# B3: Hu101-25 (antibody, V domains shown)
# VH: EVQLQESGPGLVKPSETLSLTCAVSGYSISSGYYWNWIRQPPGKGLEWIGYINYGGSNGYNPSLKSRVTISRDTSKNQFSLKLSSVTAADTAVYYCARDYDAYYEALDDWGQGTTVTVSS
# VL: EIVLSQSPATLSLSPGERATLSCRASSRVNYMHWYQQKPGQSPRPWISATSNLASGVPARFSGSGSGTSYTLTISSLEPEDFAVYYCQQWSSNPPTFGGGTKVEIK
# B4: Hu101-28 (antibody, V domains shown)
# VH: B3 VH with S30T, G45K, I49M, V68I
# VL: B3 VL
# Tests used:
# [1] = target: T1, Recombinant human CD73 protein
# [2] = target: T2, Human CD73 on the cell surface
# [3] = target: T2, Human CD73 on the cell surface; experiment: flow cytometry on SK-OV-3 cells
# [4] = target: T1, Recombinant human CD73 protein; experiment: ELISA, plate-coated recombinant human CD73
# [5] = target: T1, Recombinant human CD73 protein; experiment: Biacore T200, antibody captured, recombinant human CD73 as analyte, 1:1 model
# Protocol: FIG. 3 plots the binding kinetics of 101-Mu and mAb1 with recombinant human CD73 (recombinant human CD73 was set as an analyte with serial concentrations (100, 50, 25, 12.5, 6.25, 3.125 nM)). The binding kinetics assay of antibody to antigen was performed using Biacore T200 system through a human antibody capture approach. The […] were immobilized on CM5 sensor chip according to the manufactory's instruction. The test antibody was injected and captured by the immobilized anti-human Fc IgG. And then serial concentrations of the antigen was individually injected, and the binding profile was recorded for each concentration antigen analyte, respectively. The assay system was regenerated by injection of 10 mM Glycine-HCl pH 1.5 for 30 seconds. The running buffer was HBS-EP+ (10 mM HEPES, pH 7.4, 150 mM NaCl, 3 mM EDTA and 0.05% P20). The assay temperature was 25° C., and the association and dissociation time were 180 and 600 seconds, respectively.
# [6] = target: T1, Recombinant human CD73 protein
# [7] = target: T2, Human CD73 on the cell surface
# [8] = target: T2, Human CD73 on the cell surface; experiment: flow cytometry on SK-OV-3 cells
# Protocol: Human ovarian cancer cell line (SK-OV-3 cells) which endogenously expressed human CD73 on the surface were stained with different concentrations of IgG control, chimeric anti-CD73 (101-Mu-Chimeric, or 101-Chi) and humanized anti-CD73 antibodies (Hu101-25 and Hu101-28) at […] for 30 mins. Then, the cells were washed with PBS three times, followed by incubation with APC-labeled anti-human Fc specific antibody (Invitrogen) at 4° C. for 30 mins. Binding was measured using an FACSCanto (Becton-Dickinson), and the results are presented in FIG. 8 (see also the table below).
# [9] = target: T1, Recombinant human CD73 protein; experiment: Biacore T200, antibody captured by anti-human Fc IgG, antigen as analyte, 1:1 model
# Protocol: For the binding assay, the Biacore T200 system was used through human antibody capture approach. The anti-human Fc IgG were immobilized on CM5 sensor chip according to the manufactory's instruction. The test antibody was injected and captured by the immobilized anti-human Fc IgG. And then serial concentrations of antigen was individually injected, and the binding profile was recorded for each concentration antigen analyte, respectively. The assay system was regenerated by injection of 10 mM Glycine-HCl pH 1.5 for 30 seconds. The running buffer was HBS-EP+ (10 mM HEPES, pH 7.4, 150 mM NaCl, 3 mM EDTA and 0.05% P20). The assay temperature was 25° C., and the association and dissociation time were 180 and 600 seconds, respectively.
# [10] = target: T1, Recombinant human CD73 protein
# [11] = target: T2, Human CD73 on the cell surface
# [12] = target: T1, Recombinant human CD73 protein; experiment: ELISA with recombinant human CD73 (2 µg/ml)
Binder,"IC50 of inhibition of CD73 enzymatic activity (CellTiter-Glo luminescence, residual CD73 activity) [1]",IC50 of inhibition of cellular CD73 enzyme activity on SK-OV-3 cells (CellTiter-Glo luminescence) [2],EC50 [3],EC50 [4],Kd [5],koff [5],kon [5],"IC50 (nM), inhibition of recombinant human CD73 enzymatic activity [6]","Max. Inhibition (%), recombinant human CD73 enzymatic activity [6]","IC50 (nM), inhibition of cellular CD73 enzyme activity on SK-OV-3 cells [7]","Max. Inhibition (%), cellular CD73 enzyme activity on SK-OV-3 cells [7]",EC50 [8],Kd [9],koff [9],kon [9],IC50 of inhibition of recombinant human CD73 activity (CellTiter-Glo) [10],IC50 of inhibition of cell-bound CD73 activity on MDA-MB-231 cells (CellTiter-Glo) [11],IC50 of inhibition of cell-bound CD73 activity on SK-OV-3 cells (CellTiter-Glo) [11],EC50 [12]
B1,3.89 nM,4.62 nM,0.54 nM,0.08 nM,0.421 nM,3.42e-05 s⁻¹,81300 M⁻¹ s⁻¹,–,–,–,–,–,–,–,–,–,–,–,–
B2,–,–,–,–,–,–,–,4.25 nM,98%,1.82 nM,100%,1.35 nM,–,–,–,–,–,–,–
B3,–,–,–,–,–,–,–,4.72 nM,99%,2.98 nM,100%,2.38 nM,0.747 nM,5.51e-05 s⁻¹,73700 M⁻¹ s⁻¹,–,–,–,–
B4,–,–,0.67 nM,–,–,–,–,9.35 nM,98%,2.52 nM,100%,1.35 nM,–,–,–,2.84 nM,8.21 nM,2.52 nM,0.0887 nM
